Assay results from patent publication US9371374.
Like-named read-outs stand apart in the source and are kept apart here.

T1: HCV Core1-169 (HCV-1), P26664
T1 chain: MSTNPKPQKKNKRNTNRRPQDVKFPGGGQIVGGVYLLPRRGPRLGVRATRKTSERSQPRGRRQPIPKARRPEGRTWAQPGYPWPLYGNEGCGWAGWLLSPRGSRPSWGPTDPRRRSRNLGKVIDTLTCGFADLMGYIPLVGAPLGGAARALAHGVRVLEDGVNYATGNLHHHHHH

B1: HCV 208B-353 (antibody, V domains shown)
VH: EVQLVESGGDLVKPGGSLKLSCAASGFTFNHYGMSWVRQPPDKRLEWVATISSGGGYTYYPDSVKGRFTISRDNAKDTLSLQMSSLRSGDTAVYYCASLYGSLFAYWGQGTLVTVSA
VL: DIVMTQSQKFMSTTVGDRVRVTCKASQNVGTAVAWYQQKPGQSPKLLIYSASNRYTGVPDRFTGSGSGTDFTLTITNMQSEDLADYFCQQYSTYPLTFGSGAKLEIKR
B2: HCV 208A-967 (antibody, V domains shown)
VH: QVQLEESGPGLVAPSQSLSITCTVSGFSLTSYGVHWVRQPPGKGLEWLGVIWAVGSINYNSALMSRLSISKDNSKSQVFLKMNSLRTDDTAMYYCARDRTTATPFFDYWGQGTTLTVSS
VL: DIVLTQSPASLAGSLGKRAPISCKASESVNFFGTNLIHWYQQKPGQPPKLLIYHASNLKTGVPARFRGRGSKTNFPLPIDPVEENDVAIYYCLQNRKIPLTFGVGTKLELKR
B3: HCV 208B-471 (antibody, V domains shown)
VH: QGQLQQSGPVLVKPGASEILYCKTSGFTFSSTYISWLKQKPGQSLEWIAWIYAGTGATNYNQKFTGKAQLTVDASSNTAYMHFSGLTPEDSAIYYCAISGAGVYWGQGTLVTVSA
VL: DVVMTQTPLSLPVSLGDQASISCRSSQSLLHSNGNTYLEWYLQKPGQSPNLLIYNVSNRFSGVPDRFSGSGSGTDFALKISRVGAEDLGVYYCFQGSHVPLTFGAGTKLELKR
B4: HCV 208A-692 (antibody, V domains shown)
VH: QGQMQQSGAELAKPGASVKLSCKTSGFTFSSSYISWLKQKPGQSLEWIAWIFAGTGNTNYNQKFTDKAQLTVDTSSSTAYMQLSSLTTEDSAIYYCAISGTGFTYWGQGTLVTVSA
VL: EVLMTQSPLSLPVSLGDQASISCRSSQSLEHSNGNTYLEWFLQRPGQPPKLLIYKVSSRFSGVPDRFSGSGSGTDFTLKISRVEAEDLGVYYCFQGSHVPFTFGSGTKLAIKR

What was measured:
HCV Core1-169 (HCV-1) [1] = target: HCV Core1-169 (HCV-1) (UniProt P26664); experiment: EIA, coated core1-169
HCV Core1-169 (HCV-1) [2] = target: HCV Core1-169 (HCV-1) (UniProt P26664); experiment: SPR sandwich, C11-9 capture
[3] = target: biotinylated HCV core peptide 134-154 (Peptide 1) (HCV-1); experiment: EIA, captured mAb
[4] = target: biotinylated HCV core peptide 141-161 (Peptide 2) (HCV-1); experiment: EIA, captured mAb
[5] = target: biotinylated HCV core peptide 151-171 (Peptide 3) (HCV-1); experiment: EIA, captured mAb
HCV Core1-169 (HCV-1) [6] = target: HCV Core1-169 (HCV-1) (UniProt P26664); experiment: SPR sandwich, C11-3 capture
HCV Core1-169 (HCV-1) [7] = target: HCV Core1-169 (HCV-1) (UniProt P26664); experiment: SPR sandwich, C11-7 capture
HCV Core1-169 (HCV-1) [8] = target: HCV Core1-169 (HCV-1) (UniProt P26664); experiment: SPR sandwich, C11-14 capture
[9] = target: biotinylated HCV core peptide 134-154 (Peptide 1) (HCV-1); experiment: EIA, captured mAb; remark: listed apart in the source
[10] = target: biotinylated HCV core peptide 151-171 (Peptide 3) (HCV-1); experiment: EIA, captured mAb; remark: listed apart in the source
[11] = target: biotinylated HCV core peptide 141-161 (Peptide 2) (HCV-1); experiment: EIA, captured mAb; remark: listed apart in the source
[12] = target: T1, HCV Core1-169 (HCV-1), P26664; experiment: SPR sandwich, C11-3 capture; details: remark: other sources report otherwise
[13] = target: T1, HCV Core1-169 (HCV-1), P26664; experiment: SPR sandwich, C11-7 capture; details: remark: other sources report otherwise
[14] = target: T1, HCV Core1-169 (HCV-1), P26664; experiment: SPR sandwich, C11-14 capture; details: remark: other sources report otherwise
[15] = target: T1, HCV Core1-169 (HCV-1), P26664; experiment: SPR sandwich, C11-9 capture; details: remark: other sources report otherwise

| Binder | OD (A492) (HCV Core1-169 (HCV-1) [1]) [OD] | expected % binding (HCV Core1-169 (HCV-1) [2]) [%] | Reactivity (OD492) [3] [OD] | Reactivity (OD492) [4] [OD] | Reactivity (OD492) [5] [OD] | expected % binding (HCV Core1-169 (HCV-1) [6]) [%] | expected % binding (HCV Core1-169 (HCV-1) [7]) [%] | expected % binding (HCV Core1-169 (HCV-1) [8]) [%] | Reactivity (OD492) [9] [OD] | Reactivity (OD492) [10] [OD] | Reactivity (OD492) [11] [OD] | expected % binding [12] [%] | expected % binding [13] [%] | expected % binding [14] [%] | expected % binding [15] [%] |
| --- | --- | --- | --- | --- | --- | --- | --- | --- | --- | --- | --- | --- | --- | --- | --- |
| B1 | 0.3 | < 1 | 0.07 | 2.47 | 0.07 | 1.9 | 2.6 | 2.4 | – | – | – | – | – | – | – |
| B2 | – | < 1 | – | – | – | < 1 | < 1 | < 1 | 0.52 | 0.18 | 0.73 | – | – | – | – |
| B3 | – | – | 1.62 | 0.11 | 0.08 | – | – | – | – | – | – | < 1 | < 1 | < 1 | < 1 |
| B4 | – | – | 3.67 | – | 0.07 | – | – | – | – | – | 0.38 | – | – | – | – |
